From patent publication US20090214574A1 come the findings set out here.

Some results are limits rather than exact numbers.

Test [1] addresses human CD16A-Fc^48R/158F fusion protein (human) (UniProt P08637). In words: affinity measurement, method not named for the TandAb.
Test [2] deals with human CD16A-Fc^48R/158V fusion protein (human) (UniProt P08637). The description is as above.
Test [3] concerns the target human CD16A-Fc^48R/158F fusion protein (human) (UniProt P08637). In words: SPR, BIAcore 2000, antigen immobilized, koff/kon.
The target is the same in test [4]. The test is described as follows: surface plasmon resonance.
For test [5] the target is unchanged. The test is described as follows: SPR, BIAcore 2000, antigen immobilized. Background: Surface plasmon resonance follows binding to a sensor surface in real time, without labels.

Sequence of human CD16A-Fc^48R/158F fusion protein (human) (P08637 17-208): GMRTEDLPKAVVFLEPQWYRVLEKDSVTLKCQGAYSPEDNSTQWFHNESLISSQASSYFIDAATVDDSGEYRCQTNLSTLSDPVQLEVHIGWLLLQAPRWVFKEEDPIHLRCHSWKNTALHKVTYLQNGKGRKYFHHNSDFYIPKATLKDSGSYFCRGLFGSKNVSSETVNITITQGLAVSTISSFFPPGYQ
Sequence of human CD16A-Fc^48R/158V fusion protein (human) (P08637 17-208 L66R/F176V limits assumed): as the sequence (P08637 17-208) above, with L50R, F160V counted along it

B1: CD30×CD16^LS21 TandAb/(G2S)3 (bispecific antibody, part only; not given: anti-CD30 VH and VL, His tag, not shown: small tags and cut ends)
chain, part: EEVQLVQSGAEVKKPGESLKVSCKASGYTFTSYYMHWVRQAPGQGLEWMGIINPSGGSTSYAQKFQGRVTMTRDTSTSTVYMELSSLRSEDTAVYYCARGSAYYYDFADYWGQGTLVTVSSGGSGGSGGSGGSGGSGGSGGSGGSGGSQPVLTQPSSVSVAPGQTATISCGGHNIGSKNVHWYQQRPGQSPVLVIYQDNKRPSGIPERFSGSNSGNTATLTISGTQAMDEADYYCQVWDNYSVLFGGGTKLTVL
With B1, the fold improvement in affinity over the 4-LS21 scFv in test [1] and in test [2] was more than 10 fold each time.

B2: affinity matured anti-CD16A scFv 4-LS21 (scFv)
scFv: EVQLVQSGAEVKKPGESLKVSCKASGYTFTSYYMHWVRQAPGQGLEWMGIINPSGGSTSYAQKFQGRVTMTRDTSTSTVYMELSSLRSEDTAVYYCARGSAYYYDFADYWGQGTLVTVSSGSASAPTLKLEEGEFSEARVQPVLTQPSSVSVAPGQTATISCGGHNIGSKNVHWYQQRPGQSPVLVIYQDNKRPSGIPERFSGSNSGNTATLTISGTQAMDEADYYCQVWDNYSVLFGGGTKLTVLGQPKAAPSVTLFPPSAAAGSEQKLISEEDLNSHHHHHH
The term Kd denotes the constant that tells how readily two partners part at equilibrium. Higher therefore signals weaker binding. Broadly, the koff is the first-order rate constant of dissociation. By kon is commonly meant the rate constant with which the complex forms. Regarding B2, the Kd came to 45.3 nM in test [3] and 50 nM in test [4]. Moreover, the koff in test [5] stood at 0.00323 s⁻¹. Also, in test [5], the kon is 71300 M⁻¹ s⁻¹.
